Earlier results as cited in article PMC7911750.

Target: NKp30-Ig ECD (Homo sapiens) (UniProt O14931)
UniProt O14931, sequence (O14931 19-135): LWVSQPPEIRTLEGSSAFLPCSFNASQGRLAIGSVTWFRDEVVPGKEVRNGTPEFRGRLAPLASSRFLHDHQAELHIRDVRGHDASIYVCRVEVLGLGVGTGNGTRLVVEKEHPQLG

In the case of pp65 (from UniProt P06725), the Kd is listed as 10 nM.
